Test results: patent US20130089544A1 (AstraZeneca / MedImmune, published 2013)

Tests used:
[1] = target: T1, human ErbB2, full length, on cells (human, UniProt P04626 23-1255); assay: cell-based or functional assay
[2] = target: T1, human ErbB2, full length, on cells; assay: cell-based or functional assay; remark: listed apart in the source
[3] = target: T1, human ErbB2, full length, on cells; assay: cell-based or functional assay; remark: listed apart in the source
[4] = target: T1, human ErbB2, full length, on cells; assay: cell-based or functional assay; remark: listed apart in the source
[5] = target: T1, human ErbB2, full length, on cells; assay: cell-based or functional assay; remark: listed apart in the source
[6] = target: T2, human ErbB2 ECD-myc/His fusion protein (human, UniProt P04626 23-652); assay: limited antigen ELISA, 31 ng/ml ErbB2 ECD-myc/His coated, supernatant 1:25
T2 construct: Made in-house in 293T cells; also called hErbB2(ECD)/cMyc-His; huErbB2 (ECD)/c-myc-His; not shown: c-myc/His tag of the pSecTag2Hygro vector
Experimental: […] […] Antigen-coated plates were washed three times, blocked with 1% non-fat skim milk/PBS for at least 30 minutes at room temperature, and then washed again three times. Each hybridoma line sample was titrated in 1% non-fat skim-milk/PBS 1:3 for 7 points starting from a 1:25 dilution. […] The next day, plates were washed three times and incubated with 50 μl of 400 ng/ml immunopure Goat anti-human IgG (Fc)-HRP (Pierce catalog #31416) for 1 hour at room temperature. Then, the plates were extensively washed and pat dried on paper towel to remove residual HRP in wells. HRP substrate TMB (enhanced K-blue TMB, Neogen catalog #308177) was added to each well and incubated for 30 min. The reaction was stopped by addition of 1N HCl. Optical density at 450 nm was read on a microplate reader (Titerteck Multiskan Ascent).

[7] = target: T1, human ErbB2, full length, on cells; assay: cell-based or functional assay; remark: listed apart in the source
[8] = target: T2, human ErbB2 ECD-myc/His fusion protein; assay: SPR, Biacore 2000 medium resolution; mAb captured on goat anti-human IgG, ErbB2(ECD)-cMyc/His injected; 1:1 fit
Experimental: The binding affinity of eight of the anti-ErbB2 antibodies was measured by medium resolution Biacore. All experiments were performed using a Biacore 2000 instrument.
First, 12 high-density goat α-human IgG antibody surfaces over three CM5 Biacore chips were prepared using routine amine coupling. […] Before each antigen injection cycle, each mAb was captured for six to nine seconds at a 100 μL/min flow rate. A 2-minute wash step followed each capture injection to stabilize each mAb baseline. […] All samples were randomly injected with several mAb capture/buffer inject cycles interspersed for double referencing. […] A flow rate of 100 μL/min. was used for all injection cycles. The data was fit to a 1:1 interaction model using CLAMP.

[9] = target: T2, human ErbB2 ECD-myc/His fusion protein; assay: SPR, Biacore T100 high resolution; mAb captured on goat anti-human IgG, hHer-2(ECD)cMyc injected; 1:1 fit
Experimental: All experiments were performed using a Biacore T100 instrument. First, a high-density goat α human IgG antibody (Caltag H10500) surface was prepared over two CM5 Biacore chips using routine amine coupling. Each mAb was diluted in HBS-P running buffer containing 100 μg/ml Bovine serum albumin (BSA).
A capture level protocol was developed for all five mAbs. Before each antigen injection cycle, each mAb was captured for 15 to 30 seconds at a 20 μL/min flow rate. A 5-minute wash step followed each capture injection to stabilize each mAb baseline. […] The samples were prepared in the running buffer described above. All samples were randomly injected with several mAb capture/buffer inject cycles interspersed for double referencing. […] A flow rate of 50 μL/min. was used for all injection cycles.
All sensorgram data were fit to a 1:1 interaction model using CLAMP.

| Binder | EC50 (ng/ml), inhibition of Heregulin-induced MCF7 cell proliferation [1] [ng/mL] | EC50 (ng/ml) n1, inhibition of Heregulin-induced ErbB2 phosphorylation in MCF7 cells [2] [ng/mL] | % inhibition @36 µg/ml, SKBR3 cell proliferation [3] [%] | EC50 (ng/ml), inhibition of SKBR3 cell proliferation [3] [ng/mL] | % Inhibition @10 µg/ml, Heregulin-induced MCF7 cell proliferation [1] [%] | N1 % Inhibition @40 µg/ml, BT474 cell proliferation [4] [%] | N1 EC50 (ng/ml), inhibition of BT474 cell proliferation [4] [ng/mL] | N2 % Inhibition @40 µg/ml, BT474 cell proliferation [4] [%] | N2 EC50 (ng/ml), inhibition of BT474 cell proliferation [4] [ng/mL] | % Inhibition @10 µg/ml (n1), ErbB2 phosphorylation in BT474 cells at 48 hours [5] [%] | % Inhibition @10 µg/ml (n2), ErbB2 phosphorylation in BT474 cells at 48 hours [5] [%] | EC50 (ng/ml) n2, inhibition of Heregulin-induced ErbB2 phosphorylation in MCF7 cells [2] [ng/mL] | Kd [8] [nM] | koff [8] [s⁻¹] | kon [8] [M⁻¹ s⁻¹] | other results |
| --- | --- | --- | --- | --- | --- | --- | --- | --- | --- | --- | --- | --- | --- | --- | --- | --- |
| monoclonal antibody 1.71.3 (antibody, V domains shown) VH: EVQLVESGGGLVQPGGSLRLSCTASGFPFSSYDMHWVRQATGKGLEWVSAIGTAGDTFYPGSVKGRFTISRENAKNSLYLQMNSLRAGDTAVYYCAREGYSSGRYFYYGMDVWGQGTTVTVSS VL: not shown | > 10000 | > 10000 |  |  |  |  |  |  |  |  |  |  |  |  |  |  |
| monoclonal antibody 1.100.1 (antibody, V domains shown, Fully human IgG (gamma/kappa) from a XenoMouse XM3B-3 hybridoma; constant regions not tied to it; also called 1.100.2; 1.100.3) VH: EVQLVESGGGLVKPGGSLRLSCAASGFTFSSYSMNWVRQAPGKGLEWVSSISSSSSYIYYADSVKGRFTISRDNAKNSLYLQMNSLRAEDTAVYYCARGGDGYNYYYFDYWGQGTLVTVSS VL: DIVMTQSPDSLAVSLGERATITCKSSQSVFFRSNNKNCLAWYQQRPGQPPNLLIYWASTRESGVPDRFSGSGCGTDFTLTISSLQAEDVAVYYCQQYFGSPFTFGPGTKVDIK | 2040 | 39.9 | 54 | 61.3 | 95 | 35 | 169 | 32 | 91.1 | 37 | 26 | 33.7 | 2.9 | 0.000301 | 104000 | LA at 31 ng/ml (OD) [6]: 3.54 OD 450 nm; 1 hr pTyr inhibition % (Heregulin-induced ErbB2 phosphorylation in MCF7 cells, hybridoma supernatant) [7]: 95%; 24 hr pTyr inhibition % (Heregulin-induced ErbB2 phosphorylation in MCF7 cells, hybridoma supernatant) [7]: 95% |
| monoclonal antibody 1.140 (antibody, V domains shown, Fully human IgG (gamma/kappa) from a XenoMouse XM3B-3 hybridoma; constant regions not tied to it; also called 1.124) VH: EVQLVESGGGLVKPGGSLRLSCAASGFTFSSYSMNWVRQAPRKGLEWVSSISSSSSYIYYADSVKGRFTISRDNAKNSLYLQMNSLRAEDTAVYYCARGGDGYNYYYFDYWGQGTLVTVSS VL: not shown | 633 | 14.7 | 44 | 42.7 | 91 | 39 | 300 | 45 | 70.9 | 31 | 33 | 22.9 | 3.5 | 0.000333 | 94000 | Kd [9]: 10.6 nM; koff [9]: 0.000173 s⁻¹; kon [9]: 16400 M⁻¹ s⁻¹ |
